Results as given in PMC8534323.

T1: enolase (Eno1) (C. albicans (endogenous in strain ATCC 10231)), P30575
T1 chain: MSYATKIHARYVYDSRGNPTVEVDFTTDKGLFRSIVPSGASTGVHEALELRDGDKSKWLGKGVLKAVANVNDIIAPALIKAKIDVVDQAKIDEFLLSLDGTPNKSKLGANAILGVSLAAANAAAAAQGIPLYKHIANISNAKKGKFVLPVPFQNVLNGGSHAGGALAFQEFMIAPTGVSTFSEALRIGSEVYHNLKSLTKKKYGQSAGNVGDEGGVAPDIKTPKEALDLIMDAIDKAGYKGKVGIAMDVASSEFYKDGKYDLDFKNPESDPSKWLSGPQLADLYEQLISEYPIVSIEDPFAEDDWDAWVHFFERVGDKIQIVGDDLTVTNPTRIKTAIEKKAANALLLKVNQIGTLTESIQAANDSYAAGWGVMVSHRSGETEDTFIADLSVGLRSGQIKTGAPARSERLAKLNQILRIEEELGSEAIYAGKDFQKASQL

T2: Phosphoglycerate mutase 1 (Gpm1), recombinant (C. albicans), P82612
T2 chain: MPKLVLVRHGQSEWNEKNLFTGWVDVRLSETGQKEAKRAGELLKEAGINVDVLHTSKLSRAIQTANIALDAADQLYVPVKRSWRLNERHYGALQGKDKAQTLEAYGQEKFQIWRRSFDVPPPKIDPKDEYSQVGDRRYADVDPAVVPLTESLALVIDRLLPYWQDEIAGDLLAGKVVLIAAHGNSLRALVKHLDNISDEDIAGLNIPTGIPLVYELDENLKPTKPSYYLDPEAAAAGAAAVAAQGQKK


What was measured:
[1] = target: T1, enolase (Eno1) (C. albicans (endogenous …)); experiment: SPR; details: remark: other sources report otherwise
[2] = target: T2, Phosphoglycerate mutase 1 (Gpm1), …; experiment: SPR; details: remark: other sources report otherwise

Binder | Kd [1] | Kd [2]
human neutrophil elastase (HNE), P08246 30-267 (enzyme, here or on the partner: sulfo-SBED crosslinker in the cross-linking experiment; in flow cytometry preincubated or not with 10 µM N-(Methoxysuccinyl)-Ala-Ala-Pro-Val-chloromethyl ketone) IVGGRRARPHAWPFMVSLQLRGGHFCGATLIAPNFVMSAAHCVANVNVRAVRVVLGAHNLSRREPTRQVFAVQRIFENGYDPVNLLNDIVILQLNGSATINANVQVAQLPAQGRRLGNGVQCLAMGWGLLGRNRGIASVLQELNVTVVTSLCRRSNVCTLVRGRQAGVCFGDSGSPLVCNGLIHGIASFVRGGCASGLYPDAFAPVAQFVNWIDSIIQRSEDNPCPHPRDPDPASRTH | 36.1 nM | 
lactotransferrin (LF), P02788 20-710 (natural protein, here or on the partner: NHS-fluorescein label in flow cytometry; sulfo-SBED crosslinker in the cross-linking experiment) GRRRSVQWCAVSQPEATKCFQWQRNMRKVRGPPVSCIKRDSPIQCIQAIAENRADAVTLDGGFIYEAGLAPYKLRPVAAEVYGTERQPRTHYYAVAVVKKGGSFQLNELQGLKSCHTGLRRTAGWNVPIGTLRPFLNWTGPPEPIEAAVARFFSASCVPGADKGQFPNLCRLCAGTGENKCAFSSQEPYFSYSGAFKCLRDGAGDVAFIRESTVFEDLSDEAERDEYELLCPDNTRKPVDKFKDCHLARVPSHAVVARSVNGKEDAIWNLLRQAQEKFGKDKSPKFQLFGSPSGQKDLLFKDSAIGFSRVPPRIDSGLYLGSGYFTAIQNLRKSEEEVAARRARVVWCAVGEQELRKCNQWSGLSEGSVTCSSASTTEDCIALVLKGEADAMSLDGGYVYTAGKCGLVPVLAENYKSQQSSDPDPNCVDRPVEGYLAVAVVRRSDTSLTWNSVKGKKSCHTAVDRTAGWNIPMGLLFNQTGSCKFDEYFSQSCAPGSDPRSNLCALCIGDEQGENKCVPNSNERYYGYTGAFRCLAENAGDVAFVKDVTVLQNTDGNNNEAWAKDLKLADFALLCLDGKRKPVTEARSCHLAMAPNHAVVSRMDKVERLKQVLLHQQAKFGRNGSDCPDKFCLFQSETKNLLFNDNTECLARLHGKTTYEKYLGPQYVAGITNLKKCSTSPLLEACEFLRK | 72.2 nM | 21.4 nM
